Test results published in patent US12558435B2, “Transient inhibition of p53 in gene therapy” (Ospedale San Raffaele S.R.L., priority 2018, dated 2026).

Legend:
human CD34+ cells [1] = format: cell-based
Protocol: CD34+ cells were either freshly purified from human CB after obtaining informed consent and upon approval by the Ospedale San Raffaele Bioethical Committee, or purchased frozen from Lonza. CD34+ cells were edited according to a previously optimized protocol (Schiroli et al. 2017 supra).
Briefly, 5×10^5 CD34+ cells/ml were stimulated in serum-free StemSpan medium (StemCell Technologies) supplemented with penicillin, streptomycin, glutamine, 1 μM SR-1 (Biovision), […] (STEMCell Technologies), 10 μM PGE2 added only at the beginning of the culture (Cayman), and human early-acting cytokines (SCF 100 ng/ml, Flt3-L 100 ng/ml, TPO 20 ng/ml, and IL-6 20 ng/ml; all purchased from Peprotech). After 3 days of prestimulation, cells were washed with PBS and electroporated using P3 Primary Cell 4D-Nucleofector X Kit and program EO-100 (Lonza). Cells were electroporated with 2.5-1.25 μM of RNPs.
Transduction with AAV6 was performed at a dose of 1-2×10^4 vg/cell 15′ after electroporation. GSE56 mRNA was utilized were indicated at a dose of 150 μg/ml. Gene editing efficiency was measured from cultured cells in vitro 3 days after electroporation by flow cytometry measuring the percentage of cells expressing the GFP marker or by digital droplet PCR analysis designing primers and probe on the junction between the vector sequence and the targeted locus and on control sequences utilized as normalizer as previously described (Schiroli et al. 2017 supra).
For HDR ddPCR, primers and probes were designed on the junction between the vector sequence and the targeted locus and on control sequences used for normalization (human TTC5 genes). Thermal conditions for annealing and extension were adjusted for each specific application as follows: AAVS1/Intron 1 IL2RG HDR 3′ integration junction ddPCR: 55° C. for 30 sec, 72° C. for 2 min. Primers and probes for PCR and ddPCR amplifications are shown below.
CD34^+ cells were purchased frozen from Lonza. CD34^+ cells were edited according to a previously optimised protocol (Schiroli, G. et al (2017) Sci Transl Med 9). Briefly, 1-5×10^5 CD34^+ cells/ml were stimulated in serum-free StemSpan medium (StemCell Technologies) supplemented with penicillin, streptomycin, glutamine, 1 μM of the arylhydrocarbon receptor antagonist SR-1 (Biovision), […] of the pyrimidoindole-derivative UM171 (STEMCell Technologies), 10 μM of the 15-hydroxy PGDH competitive inhibitor dmPGE-2 added only at the beginning of the culture (Cayman), and human early-acting cytokines (SCF 100 ng/ml, Flt3-L 100 ng/ml, TPO 20 ng/ml, and IL-6 20 ng/ml; all purchased from Peprotech). After 3 days of pre-stimulation, cells were washed with PBS and electroporated using P3 Primary Cell 4D-Nucleofector X Kit and program EO-100 (Lonza). Cells were electroporated with 1-1.2 μM of RNPs. Where specified, electroporation mixture was supplemented with Ad5-E4orf1, Ad5-E4orf6/7 and GSE56/Ad5-E4orf6/7 mRNAs, which were respectively utilized at doses of 120, 80 and 200 μg/ml, or Ad5-E1B55K and Ad5-E4orf6 mRNAs were used at 120 and 80 μg/ml. All other adenoviral protein variants were used at standard dose 120 μg/ml. Transduction with AAV-6 was performed 15 min post-electroporation at dose of 1-5×10^4 vg/cell. Where specified, CD34+ cells were stimulated for shorter time in culture (0, 24 or 48 hours) and edited as described above. Gene editing efficiency was measured from cultured cells in vitro at 4 days post-editing by flow cytometry measuring the percentage of cells expressing the GFP reporter gene or by digital droplet PCR analysis designing primers and probe on the junction between the vector sequence and the targeted locus and on control sequence utilised as normaliser as previously described (Schiroli, G. et al (2017) Sci Transl Med 9) and Schiroli et al., Cell Stem Cell 2019. […]

human CD34+ cells [2] = test: CFU-C / colony forming cell assay of edited CD34+ cells; format: cell-based; conditions: for erythroid and myeloid clonogenic output compared to standard protocol: FIG. 14G
human CD34+ cells [3] = test: Cell cycle analysis by Hoechst 33342 staining; format: cell-based; conditions: for cell cycle states (G1 to S/G2/M): bulk treated cells, 12-24 hours, FIG. 14H
Protocol: Cell cycle was analysed by flow cytometry (CytoFLEX LX; Beckman Coulter) at 12-24 hours post-editing by collecting 0.5-1×10^5 total HSPCs in culture. Cells were washed with PBS+2% FBS and stained by using 10 μg/ml Hoechst 33342 (Sigma-Aldrich) in PBS+2% FBS for 0.5-1 hour in final volume equal to 200 μl.

CDKN2A = test: TaqMan assay of CDKN2A gene expression; format: cell-based, human; conditions: 24 hours post-editing; FIG. 16C-D
[4] = test system: human CD34+ cells transplanted into NSG mice; test: Xenotransplantation of edited human CD34+ cells in NSG mice; format: in vivo
Protocol: For transplantation, 3×10^5 CD34+ cells treated for editing at day 5 of culture were injected intravenously into NSG mice after sub-lethal irradiation (150-180 cGy). Sample size was determined by the total number of available treated cells. Mice were attributed to each experimental group randomly. Human CD45+ cell engraftment and the presence of gene-edited cells were monitored by serial collection of blood from the mouse tail and, at the end of the experiment (>20 weeks after transplantation), BM and spleen were harvested and analyzed.
NOD-SCID-IL2Rg^−/− (NSG) mice were purchased from The Jackson Laboratory and were maintained in specific-pathogen-free (SPF) conditions. The procedures involving animals were designed and performed with the approval of the Animal Care and Use Committee of the San Raffaele Hospital (IACUC #749) and communicated to the Ministry of Health and local authorities according to Italian law. For transplantation, 1.5-3×10^5 (for primary) or 2×10^6 (for secondary) CD34^+ treated cells at 24 hours post-editing protocol were injected intravenously into NSG mice after sub-lethal irradiation (180 cGy). Sample size was determined by the total number of available treated cells. Mice were attributed to each experimental group randomly. Human CD45^+ cell engraftment and the percentage of edited GFP^+ cells were monitored by serial collection of blood from the mouse tail over the weeks post-transplantation and at the end of the experiment (18-20 weeks post-transplantation) both spleen and bone-marrow were harvested and analysed.

B1: E4orf6/7: adenoviral protein from adenovirus serotype 5 E4 gene (SEQ ID No. 2), delivered as mRNA (protein)
chain: MTTSGVPFGMTLRPTRSRLSRRTPYSRDRLPPFETETRATILEDHPLLPECNTLTMHNAWTSPSPPVKQPQVGQQPVAQQLDSDMNLSELPGEFINITDERLARQETVWNITPKNMSVTHDMMLFKASRGERTVYSVCWEGGGRLNTRVL
modifications: delivered as mRNA; example amino acid sequence of Ad5-E4orf6/7
mean increase in the percentage of primitive HSPC expressing GFP (CD34+CD133+CD90+GFP+) (human CD34+ cells [1]; AAVS1, CB CD34+, vs standard, all AAV6 doses, FIG. 6B): 1.5 fold | increase in the percentage of targeted CD90+ cells (human CD34+ cells [1]; AAVS1, cells for NSG transplantation, FIG. 10B): 1.4 fold | editing efficiency (GFP expression) at IL2RG locus (human CD34+ cells [1]; IL2RG, FIG. 14I): significant editing efficiency increase | HDR edited alleles at AAVS1 locus (human CD34+ cells [1]; digital PCR in bulk culture, FIG. 14D): significantly increased | HDR-events integrations increase in AAVS1 locus of HSPCs (human CD34+ cells [1]; discussion): 1.5 fold | editing efficiency by molecular analyses on genomic DNA (human CD34+ cells [1]; human HSPC, FIG. 8B): reproducibly able to boost editing | mean increase in the fraction of GFP+ cells compared to the standard (human CD34+ cells [1]; side-by-side, AAVS1, 4 days, FIG. 7A): 1.45 fold | editing efficiency with editing at day 0 to day 2 post-thawing (human CD34+ cells [1]; total bulk and CD90+ fraction, AAVS1, FIG. 14K): editing efficiency was increased | HDR-mediated integration (genomic DNA) (human CD34+ cells [1]; vs standard, FIG. 10D): increase levels of HDR-mediated integration | increase in number of myeloid and erythroid colony forming units (CFU) compared to standard (human CD34+ cells [2]; FIG. 7C): 2 fold | erythroid and myeloid clonogenic output compared to standard protocol (human CD34+ cells [2]): not affected | cell cycle states (G1 to S/G2/M) (human CD34+ cells [3]): significant transition from G1 phase to S/G2/M phases | CDKN2A expression (CDKN2A): significantly up-regulated | human CD45+ cell engraftment in bloodstream, between groups ([4]; AAVS1, T0eq=3×10^5/mouse, FIG. 17B): did not show any statistical significance | increase of the fraction of circulating edited cells ([4]; AAVS1, T0eq=3×10^5/mouse, primary transplant, FIG. 17C): 1.5 fold | fraction of edited cells (GFP+ or HDR+) in blood, hematopoietic organs and blood lineages ([4]; AAVS1 edited CB CD34+, FIG. 11): significant higher fraction of edited cells | overall level of engraftment of the human cells ([4]; AAVS1 edited CB CD34+, FIG. 11): does not affect the overall level of engraftment

B2: GSE56: p53 dominant negative peptide (SEQ ID No. 9), transiently overexpressed from electroporated mRNA (protein)
chain: MDGWCPGRDRRTEEENFRKKEEHCPELPPGSAKRALPTSTSSSPQQKKKPLDGEYFTLKIRGRERFEMFRELNEALELKDARAAEESGDSRAHSSYPKIVS
modifications: amino acid sequence of GSE56
increase of GFP expression compared to standard RNP+AAV6 (human CD34+ cells [1]; AAVS1, most primitive compartment (CD34+133+90+ / CD90+), 96 hours, FIG. 14C): 1.1 fold | HDR-mediated integration (GFP+ cells) in the CD34+ 133+ 90+ fraction, mean (human CD34+ cells [1]; AAVS1 or IL2RG editing, 3 days): 42% | overall efficiency of DNA repair (human CD34+ cells [1]; AAVS1 or IL2RG editing, 3 days, FIG. 3C): did not negatively impact overall efficiency of DNA repair | HDR-mediated integration at the targeted locus (human CD34+ cells [1]; AAVS1 or IL2RG editing, ddPCR, 3 days, FIG. 3C left): promoted HDR-mediated integration at the targeted locus | erythroid and myeloid clonogenic output compared to standard protocol (human CD34+ cells [2]): improved | erythroid and myeloid clonogenic output (human CD34+ cells [2]; sorted populations, FIG. 3F): increased particularly in CD90+ fraction | percentage of cells in S/G2/M phases (human CD34+ cells [3]; 24 hours after gene editing, FIG. 12A): partially rescued | cell cycle states (G1 to S/G2/M) (human CD34+ cells [3]): lower and not significant | CDKN2A expression (CDKN2A): still remained at basal level | fraction of HDR-edited cells in the PB, average ([4]; 22 weeks post transplantation, IL2RG edited cells, FIG. 4D): 32% | engraftment in the haematopoietic organs ([4]; AAVS1, limited dose T0eq=1.5×10^5/mouse, FIG. 12C): significantly higher engraftment | percentage of human cells in the peripheral blood ([4]; CD40LG-edited cells, FIG. 13B): higher percentage of human cells | percentage of gene correction over time ([4]; CD40LG-edited cells, FIG. 13C): more stable percentage of gene correction over time | percentage of corrected cells in sorted cell types, vs standard ([4]; CD40LG-edited cells, endpoint, included CD34+ cells, FIG. 13E): 3- to 6 fold | differentiation output ([4]; IL2RG edited cells, PB lineages, FIG. 4C): without any skewing in the differentiation output | human CD45+ engraftment ([4]; IL2RG edited cells, PB of NSG mice, FIG. 4B): increased engraftment | engraftment of treated cells ([4]; discussion summary): higher engraftment of treated cells
